Test results: the nanobody polyreactivity screen of Harvey et al. (2022)

Assay: yeast display, Sf9 membrane polyspecificity reagent, FACS + sequencing; frameworks hold sequencing errors
Summary of the method: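 A synthetic nanobody library was expressed on Saccharomyces cerevisiae BJ5465 by galactose induction for 36–48 hours. The library was stained for 1 hour at 4 °C with 10% biotinylated, detergent-solubilized Sf9 membrane reagent and enriched with streptavidin microbeads before FACS. Low and high (top ~1%) gates were set on anti-HA fluorescence for expression and streptavidin fluorescence for reagent binding, and each polyreactivity label reflects the gate of origin.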

Sequence: QVQLVESGGGLVQAGGSLRLSCAASGSIFRIKAMGWSRQAPGKERELVAAITGRVGSTYYADSVKGRFTISRDNAKNTVYLQMNSLKPEDTAVYYCAARAGSSRYTREYRYDYWGQGTQVTVSS
- polyreactivity (PSR sort gate): high polyreactivity

Sequence: QVQLVESGGGLVQAGGSLRLSCAASGFTFHVNTMGWYRQAPGKERELVAAISRSGGSTYYADSVKGRFTISRDNAKNTVYLQMNSLKPEDTAVYYCATPSPGYTYDPRTQEENDYWGQGTQVTVSS
- polyreactivity (PSR sort gate): low polyreactivity

Sequence: QVQLVESGGGLVQAGGSLRISCAASGSTFGRYAMGWYRQAPGKEREFVAAITQGGTNTYYADSVKGRFTISRDNAKNTVYLQMNSLKPEDTAVYYCARVRRYPLRYNYWGQGTQVTVSS
- polyreactivity (PSR sort gate): high polyreactivity

Sequence: QVQLVESGGGLVQAGGSLRLSCAASGSIFPGNGMGWYRQAPGKEMELVASITSGARTNYADSVKGRFTISRDNAKNTVYFPMNSLIPEDTAVYYCAADIKSSIRRAYDYWGQGSQVTVSS
- polyreactivity (PSR sort gate): high polyreactivity

Sequence: QVQLVESGGGLVQAGGSLRLSCDASGSTFWFNDMGWYRQAPGKERELVAAIDWSDGSTYYADSVKGRFTISRDNAKNTVYLQMNSLKPEDTAVYFCAADHRYSARRSVPTLYDYWGQGTQVTVSS
- polyreactivity (PSR sort gate): low polyreactivity

Sequence: QVQLVESGGGLVQAGGSLRLSCAASGRIFRPYAMGWYRQAPGKEREFVAAITQSGGITSYADSVKGRFTISRDNAKNTVYLQMNRLKPEDTAVYFCATTSRYTRSHYDWYDYWGQGTQVTVSS
- polyreactivity (PSR sort gate): low polyreactivity

Sequence: QVQLVESGGGLVQAGGSLRLSCAASGSTFIFYSMGWYRQAPGKERELVAAITSSGGSTYYADSVKGRFTISRDNANNTVYLQMNSLKPEDTAVYYCITLAYTYGSKFGYWGQGTQVTVSS
- polyreactivity (PSR sort gate): low polyreactivity

Sequence: QVQLVESGGGLVHAGGSLRLSCAASGRTFYIYAMGWYRQAPGKERELVADITSGGSTYYADSVKGRFTISRDNAKNTVYLQMNSLKPEDTAVYYCAADWVTFYSYTEYDYWGQGTQVTVSS
- polyreactivity (PSR sort gate): low polyreactivity

Sequence: QVQLVESGGGLVQAGGSLRLSCAASGRIFGYYVMGWYRQAPGKERELVAAISRSGGSTYYADSVKGRFTISRDNAKNTVYLQMNSLKPEDTAVYYCAKRVCTYGFSGYDYWGQGTQVTVSS
- polyreactivity (PSR sort gate): high polyreactivity

Sequence: QVQLVESGGGLVQAGGSLRLSCAASGRIFPYYTMGWYRPAPGKERELVAAISRRGSSTYYADSVKGRFTISRDNAKNTVYLQMNSLKPEDTAVYFCAADRGGYTRTGEYDYWGQGTQVTVSS
- polyreactivity (PSR sort gate): high polyreactivity

Sequence: QVQLVESGGGLVQAGGSLRLSCAASGRIYWNTKGWYRQAPGKERELVASISTGGGRTYYADSVKGRFTISRDNAKNTVYLQMNSLKPEDTAVYYCAARRGAGYSRFNYWGQGTQVTVSS
- polyreactivity (PSR sort gate): high polyreactivity

Sequence: QVQLVESGGGLVQAGGSLRLSCAASGSTFGWYAMGWYRQAPGKERELVAAIRRTGSTYYADSVKGRFTISRDNAKNTVYLQMNSLKPEDTAVYYCNAKYPLYLTGYDYWGQGTQVTVSS
- polyreactivity (PSR sort gate): low polyreactivity

Sequence: QVQLVESGGGLVQAGGSLRLSCAASGNIFHVNAMGWYRQAPGKERELVAGITWSGGSTYYADSVKGRFTISRDNAKNTVYLQMNSLKPEDTAVYYCAATGWYFGYGRYGYWVQGTQVTVSS
- polyreactivity (PSR sort gate): high polyreactivity

Sequence: QVHLVESGGGLVQAGGSLRLSCAASGSTFWKYVMGWYILAPGKERELVAAITSRGGSTYADSVKGRFTISRDNAKNTVYLQMNSLKTEDTAVYYCAATKFWYYGYDYWGQGTQVTVSS
- polyreactivity (PSR sort gate): low polyreactivity

Sequence: QVQLVESGGGLVQAGGSLRLSCAASGRTFYTYAMGLYRQAPGNERELVATITSGGSTYYADSVKGRFTISRDNAKNTVYLQMNSLKPEDTAVYYCARRRRESRQDGDYWVQGTQVTVSS
- polyreactivity (PSR sort gate): high polyreactivity

Sequence: QLQLVESGGGLVQAGGSLRLSCAASGRIFKEYAMGWYRQAPGQERELVAAISWRGGSTYYADSVKGRFTISRDNAKNTVNLQMNSLKPEDTAVYYCARVVSRNTHPYYHWGQVTQVTVSS
- polyreactivity (PSR sort gate): low polyreactivity

Sequence: QVQLVESGGGLVQAGGSLRLSCAASGSIIVGYAMGWYRQAPGKERELVAAISWSGGRTYYADSVKGRFTISRDNAKNTVYLQMNSLKPEDTAVYYCATVTKGSLRYNYNYWGQGTQVTVSS
- polyreactivity (PSR sort gate): high polyreactivity

Sequence: QVQLVESGGGLVQAGGSLRLSCAASGSIVGYAMGWYRQAPGKERELVAAISSGGSTNYADSVKGRFTISRDNAKNTVYLQMNSLKPEDTAVYYCAKSWRWRANLRGYYWGQGTQVTVSS
- polyreactivity (PSR sort gate): high polyreactivity

Sequence: QVQLVESGGGLVQAGGSLRLSCAASGSILDHYAMGRYRQAPGKEREFVAAISIRGGSTYYADSVKGRFTISRDNEKNTVYLHMNSLKPEDTAVYYCNALSNYVYRRNDYGGQGTQVTVSS
- polyreactivity (PSR sort gate): low polyreactivity

Sequence: QVQLVESGGGLVQAGGSLRLSCAASGFTFAYYAMGWYRQAPGKETELVAAITSGGRTNYADSVKGRFTISRDNAKNTVYLQMNSVKPEDTAVDYCAKYRRGGSRHYSVFNHDYWGQGTQVTVSS
- polyreactivity (PSR sort gate): high polyreactivity

Sequence: QVQLVESGGGLVQAGGSLRLICAASGSTFIGNVMGWYRQAPGKERELVAAITSTDSTDYADSVKGRFTISRDNAKNTVYLQMNSLKPEDTAVYYCNAEYEYGSAYWSGVYYWYNYWGQGTQVTVSS
- polyreactivity (PSR sort gate): high polyreactivity

Sequence: QVQLVESGGGLVQAGGSLRLSCAASGRIFTGYAMGWYRQAPGKERELVAAINSGGRTNYADSVKGRFTISRDNAKNTVYLQMNSLKPEDTAVYYCAARYTNYGGYYWGQGTQVTVSS
- polyreactivity (PSR sort gate): high polyreactivity

Sequence: QDQRVESGGGLVQAGGSLRLSCAASGRTFKGNARGWYRQAPGKERELVAAISKSGGRTYYADSVKARFTISRDNAKNTVYLQMNSLKPEDTAVYYCAVDEGPTIVRFGYSGQGTQVTVSS
- polyreactivity (PSR sort gate): high polyreactivity

Sequence: QVQLVESGGGLVQAGGSLRLSCAASGSIFGRYTMGWYRQAPGKERELVAAISWGGGSTYYADSVKGRFTISRDNAKNTVYLQMNSLKREDTAVYYCDADTYWAIDPIYDYWGQGTQVTVSS
- polyreactivity (PSR sort gate): low polyreactivity

Sequence: QVQLVESGGGLVQAGGSLRLSCAASGNTFYLYAMGWYRQAPGKEREFVAAITGNGGSTYYADSVKGRFTISRDNAKNTVYLQMNSLKPEDTEVYYCAATFWGYNQYDYWGQGTQVTVSS
- polyreactivity (PSR sort gate): high polyreactivity

Sequence: QVQLVESGGGLVQAGGSLRLSSAASGRTFPIYAMGWYRQAPGKERELVATITLNDGNTYYADSVKGRFTISRDNAKNTVYLQMNSLKPEDTAVYYCAAKGGWPWHYHYQKNSEYDYWGQGTQVTVSS
- polyreactivity (PSR sort gate): low polyreactivity

Sequence: QVQLVESGGGLVQAGGSLRLSCAASGSIFKANTMGWSRQAPGKERELVAAISGSGGRTRYADSVRGRFTISRDNAKNTVYLQMNSLKPDVTAVYYCAATDRGGYYYWGQGTQVTVSS
- polyreactivity (PSR sort gate): high polyreactivity

Sequence: QVQLVESAGGLVQAGGSLRLSCAASGRTFRTYAMGWYRPAPVKERELVAAITSGGNTYYADSVKGRFTISRDNAKNTVYLQMNSLKPEDTAVYYCAAVQYFKVYYWGQGTQVTVSS
- polyreactivity (PSR sort gate): high polyreactivity

Sequence: QVQLVESGGGLVQAGGSLRLIFAASGFTFGGYAMGWYRQGPGKERELVAGISYRGGSTYYADSVKGRFTISRDNAKNTVYLQMNSLKPEDTAVYYCAADRGYPGKVDYWGQGTQVTVSS
- polyreactivity (PSR sort gate): low polyreactivity

Sequence: QVQLVESGGGLVQAGGTLRLSCAASGFTFGYYAMGWYRPAPGKERELVAAISSRGGTTYYADSVKGRFTISRDNAKNTVYLQMNSLKPEDTAVYYCAKDSFRNIYNYWGQGTQVTVSS
- polyreactivity (PSR sort gate): high polyreactivity

Sequence: QVQLVESGGGLVQAGGSLRLSCAASGITSFFYDMGWYRQAPGKERELVAGISSGGSTNYADSVKGRFTISRDNAKNTVYLQMNSLKPEDTAVSYCAKDYPHTVSLGEYDYWGQGTQVTVSS
- polyreactivity (PSR sort gate): high polyreactivity

Sequence: QVQLVESGGGLVQAGGSLRLSCAASGFIFYSYAMGWYRQAPGKEREFVAAISRAGSTNYADSVKGRFTISRDNAKNTVYLQMNSLIPEDTAVYYCNKGYHSWSRLSQFGWSYDYWGQGTQVTVSS
- polyreactivity (PSR sort gate): high polyreactivity

Sequence: QVQLVESGGGLVQAGGSLRLSCAASGSTFGRYAMGWYRQAPGKERELVAAISWSGGSTHYADSVKGRFTISRDNAKNTVYLQMNSLKPEDTAVYYCAAYTFYSYDYWGQGSQVTVSS
- polyreactivity (PSR sort gate): high polyreactivity

Sequence: QVQLVESGGGLVQAGGSLRLSCAASGSTFSRNASGWYRQAPGKERELVAAISRRGDTTYYADSVKGRFTISRDNAKNTVYLQMNSLKPEDTAVYYCNRLTIGSSSYDYWGQGTQVTVSS
- polyreactivity (PSR sort gate): high polyreactivity

Sequence: QVQLVESAGGLVQAGGSLRLSCAASGRIFLYNAMGWYRQAPGKERELVAVISSNGGRTYYADSVKGRFTISRDNAKNTVYLQMNSLKPEDTAVYYCAAVQHYVTHMDYWGQGTQVTVSS
- polyreactivity (PSR sort gate): low polyreactivity

Sequence: QVQLVESGGGLVQAGGSLRLSCAASGRTFWNNAMGWYRQAPGKERELVAAISVRGGSTYYADSVKGRFTISRDNAKNTVYLQMNSLKPEDTAVYYCATRSRGWIAPPWQGSDGYYYWGQGTQVTVSS
- polyreactivity (PSR sort gate): low polyreactivity

Sequence: QVQLVESGGGLVHAGGSLRLSCAACGNIFKYYTMGWYREAPGKERELVDAITSGGRTNYADSVKGRFTISRDNAKNTVYLKMNSLKPEDTAVYYCAAYDVIYSQGFDYWGQGTQVTVSS
- polyreactivity (PSR sort gate): low polyreactivity

Sequence: QVQLVESGGGLVQAGGSLRLSCAASGITLLGNTMGWYRQAPGKERELVAAIRTNSGRTYYADSVKGRFTISRDNAKNTVYLQMNSLKPEDTAVYYCAKRYFSYLGREMDYWGQGTQVTVSS
- polyreactivity (PSR sort gate): high polyreactivity

Sequence: QVQLVESGGGLVQAGGSLRLSCAASGFTFRWNAMGWYRQAPGKERELVAAITNDDSTYYADSVKGRFTISRDNAKNTVYLQMNSLKPEDTAVYYCNARYGRYLDLDTGVALAGRGYWGQGTQVSVSS
- polyreactivity (PSR sort gate): low polyreactivity

Sequence: QVQLVESGGGLVQAGGSLRLSCAASGRTFYAYAMGWYRQAPGKERELVAAITSGASTYYADSVKGRFTISRDNAKNTVYLQMFSLKPEDTAVYYCNAEYYEGYIGVPGSFWPYEYWGQGTQVTVSS
- polyreactivity (PSR sort gate): low polyreactivity

Sequence: QVQLVESGGGLVQAGGSLRLSCAASGRIFSRNAMGWYRQAPGKERELVAAISRSGTSTYYADSVKGRFTISRDNAKNTVYLQMNSLKPEDTAVYYCAAYPYYDRDYWGQGTQVTVSS
- polyreactivity (PSR sort gate): low polyreactivity

Sequence: QVQLVESGGGLVQAGGSLRLSCAASGLIFGYNAMGWYRQAPGKEREYVAGISVIDGRTYYADSVKGRFTISRDNAKNTVYLQMNSLKPEDTAVYYCATEGFVYSWLWEFEYWGQGNQVTVSS
- polyreactivity (PSR sort gate): low polyreactivity

Sequence: QVQLGESGGGLLQAGGSVRLSCAASGRTITANAMGLYRQAPGKERELFATISTRGGRTYYADSVKGRFTISRDNSKNTVYLQMHSLKPEETAVFYGAFTIRAKYTLKEDYWGQGTQVTVSS
- polyreactivity (PSR sort gate): low polyreactivity
